Data: US7595158B2, “Bcl2L12 polypeptide activators and inhibitors” (Dana-Farber Cancer Institute, Inc., priority 2003, dated 2009)

Legend:
[1] = tested on: Ink4a/Arf deficient astrocytes; test: Cell growth of transfected Ink4a/Arf deficient astrocytes over six days; type: cell-based, mouse; conditions: LacZ about 1.5×10^6 cells
Protocol: Ink4a/Arf deficient astrocytes transfected with a vector encoding either LacZ, Bcl2L12-V5, or EGFR* polypeptides were cultured for six days. Each day, the number of cells in each culture was determined. In addition, stably transfected cells were harvested and assessed for the phosphorylation of Erk1/2 (p44/p42).

[2] = tested on: Ink4a-/-/Arf-/- astrocytes; test: Growth of transduced Ink4a-/-/Arf-/- astrocytes under normal and low-serum conditions; type: cell-based, mouse
Description: The Bcl2L12-V5, R-RAS, and IRF3 nucleic acid sequences were cloned into expression vectors. Controls included expression vectors containing EGFR or Bcl2 nucleic acid sequences. The encoded polypeptides were expressed in primary astrocytes and tested for cell growth, transformation, and apoptosis activities. Primary astrocytes deficient for Ink4a/Arf (e.g., Ink4a^−/−/Arf^−/− astrocytes) were used given the prominence of this tumor suppressor lesion in advanced human gliomas. The following was performed to assess growth characteristics under normal growth conditions. Mouse Ink4a^−/−/Arf^−/− astrocytes were retro-virally transduced with pBabe vector alone; Bcl2L12-V5 nucleic acid; R-RAS nucleic acid; IRF3 nucleic acid; EGFR* nucleic acid; or Bcl2 nucleic acid. After retro-viral infection, transduced mouse Ink4a^−/−/Arf^−/− astrocytes were subjected to puromycin (2 μg/mL) selection for four days and plated at a density of 1×10^5 cells/10 cm dish using 10% FBS-DMEM medium. All transduced Ink4a^−/−/Arf^−/− astrocytes were counted each day for five days to determine cell numbers (mean±S.D.; three independent experiments with each being performed in triplicate).
The following was performed to assess growth characteristics under low-serum growth conditions. Retro-virally transduced mouse Ink4a^−/−/Arf^−/− astrocytes (1×10^6 cells/10 cm dish) were allowed to attach onto plates in 10% FBS-DMEM medium for five hours. After five hours, the medium was changed to 0.1% FBS-DMEM, and the cells were allowed to grow for three days. After three days in 0.1% FBS, the cells were counted to determine cell numbers (mean±S.D.; three independent experiments with each being performed in triplicate). The number of Ink4a^−/−/Arf^−/− astrocytes infected with pBabe-vector was set to 1.0.

[3] = tested on: Ink4a/Arf deficient astrocytes; test: Colony formation of Ink4a/Arf deficient astrocytes after gamma-irradiation; type: cell-based, mouse; conditions: γ-irradiated 5 Gy, ten days, 1000 cells/10 cm dish; vector only about 17
Protocol: The ability of Bcl2L12 polypeptide to promote colony formation was assessed. Briefly, 1000 cells were seeded in a 10 cm dish and γ-irradiated (5 Gy). After culturing the irradiated cells for ten days, the cells were stained with crystal violet, and the number of colonies was counted. Bcl2L12-V5 polypeptide expression promoted colony formation in Ink4a/Arf deficient astrocytes upon γ-irradiation (about 27 colonies for cells expressing Bcl2L12-V5 polypeptides compared to about 17 colonies for control vector only cells; 1000 cells/10 cm dish).

caspases 3 and 7 = test: Western blot of procaspase maturation in STS-treated Ink4a/Arf deficient astrocytes; type: cell-based, mouse; conditions: STS 1 μM, 0-16 hours
Protocol: In another experiment, Ink4a/Arf deficient astrocytic cell cultures ectopically expressing the Bcl2L12-V5 polypeptide or containing pBabe were treated with STS (1 μM) for 0, 2, 4, 8, or 16 hours. Cell lysates were analyzed by Western blotting using anti-caspase-9 antibodies (1:1000; Cell Signaling), anti-caspase-7 antibodies (0.5 μg/ml; BD Pharmingen), anti-caspase-3 antibodies (0.25 μg/ml; BD Transduction Laboratories), anti-cleaved caspase-9 antibodies (1:1000; Cell Signaling), anti-cleaved capase-7 antibodies (1:1000; Calbiochem), and anti-cleaved caspase-3 antibodies (1:1000; Calbiochem).

[4] = tested on: Ink4a/Arf deficient astrocytic cell cultures; test: Nuclear swelling (Nicoletti method) in Ink4a/Arf deficient astrocytes; type: cell-based, mouse; conditions: STS 500 nM 24 hours; vector only about 42 percent
Protocol: To quantify nuclear swelling in Ink4a/Arf deficient astrocytic cell cultures, cells transfected with vector only or a vector encoding a Bcl2L12-V5 polypeptide were treated with or without STS (500 nM) for 24 hours, lysed, and stained with Propidium Iodide (Nicoletti method). Nuclei with increased forward scatter (i.e., increased size) were defined as swollen, and the number of those nuclei relatively to the total number of nuclei was expressed as the percent swelling.

[5] = tested on: Ink4a/Arf deficient embryonic fibroblasts; test: Colony formation of Ink4a/Arf deficient embryonic fibroblasts; type: cell-based; conditions: about 300 cells per 6 well plate; vector only about 13
Protocol: In addition, Ink4a/Arf deficient embryonic fibroblasts were transfected with vector only or a vector encoding a Bcl2L12 polypeptide or Bcl2 polypeptide. Once the cells were transfected, the number of colonies formed in cultures (about 300 cells per 6 well plate) was determined. Expression of Bcl2L12 polypeptide promoted growth of Ink4a/Arf deficient embryonic fibroblasts. […] In a similar experiment, Ink4a/Arf deficient embryonic fibroblasts were co-transfected with a vector encoding H-RasV12 and either a vector only, vector encoding Bcl2L12 polypeptide, or a vector encoding Bcl2 polypeptide. Once the cells were transfected, the number of foci formed per transfection was determined. Expression of Bcl2L12 polypeptide or Bcl2 polypeptide in combination with H-RasV12 expression promoted growth of Ink4a/Arf deficient embryonic fibroblasts (about 1.5 to 2 fold more foci per transfection for cells expressing Bcl2L12 polypeptide or Bcl2 polypeptide compared to control pBabe cells).

astrocytes = test: Plasma membrane integrity (SYTOX Green) and LEHDase activity in STS-treated astrocytes; type: cell-based; conditions: range of STS concentrations
Protocol: To assess and quantify plasma membrane integrity, vector or Bcl2L12-V5 transfected astrocytes were treated with or without STS (500 nM) for 24 hours and stained with a combination of Hoechst (a DNA intercalating dye that enters living as well as apoptotic or necrotic cells) and SYTOX Green (a green fluorescent dye that only enters cells with a disintegrated plasma membrane). FIG. 4B is a picture of STS treated and untreated cells transfected with either a control vector (pBabe) of a vector encoding a Bcl2L12-V5 polypeptide.
In addition, the green cells were counted over a range of different STS concentration (FIG. 4C; bars), and caspase-9 activity was determined by quantifying LEHDase activity in the corresponding cell lysates (FIG. 4C; histogram). […] SYTOX green positive cells were also quantified using a FACS based analysis assessing the increase in green fluorescence.

B1: Bcl2L12-V5: Bcl2L12 polypeptide having the V5 epitope tag, ectopically expressed from pBabe-Bcl2L12-V5 vector; human amino acid sequence 1-334 (protein)
chain: MGRPAGLFPPLCPFLGFRPEACWERHMQIERAPSVPPFLRWAGYRPGPVRRRGKVELIKFVRVQWRRPQVEWRRRRWGPGPGASMAGSEELGLREDTLRVLAAFLRRGEAAGSPVPTPPRSPAQEEPTDFLSRLRRCLPCSLGRGAAPSESPRPCSLPIRPCYGLEPGPATPDFYALVAQRLEQLVQEQLKSPPSPELQGPPSTEKEAILRRLVALLEEEAEVINQKLASDPALRSKLVRLSSDSFARLVELFCSRDDSSRPSRACPGPPPPSPEPLARLALAMELSRRVAGLGGTLAGLSVEHVHSFTPWIQAHGGWEGILAVSPVDLNLPLD
modifications: left off: small tags and cut ends
cell number on day 6 [1]: about 3.8×10^6 cells
resistance to growth inhibition by low serum culture ([2]; 0.1% FBS, three days, vs pBabe): significantly resistant to growth inhibition
growth / proliferation under normal growth conditions ([2]; over-expression, 10% FBS, vs vector only): significant increase in growth
number of colonies [3]: about 27 colonies
maturation of effector caspases (caspases 3 and 7): significant reduction of the maturation of effector caspases 3 and 7
swelling (nuclei) [4]: about 67%
number of colonies [5]: about 26 colonies
SYTOX Green positivity (astrocytes): significantly increased
caspase-9 activity (LEHDase) (astrocytes): dramatically reduced
